Molecular target: EZH2 (endogenous) (human (endogenous in MDA-MB-231, …, UniProt Q15910 1-746))
Test: co-IP

Sequence of EZH2 (endogenous) (human (Q15910 whole entry): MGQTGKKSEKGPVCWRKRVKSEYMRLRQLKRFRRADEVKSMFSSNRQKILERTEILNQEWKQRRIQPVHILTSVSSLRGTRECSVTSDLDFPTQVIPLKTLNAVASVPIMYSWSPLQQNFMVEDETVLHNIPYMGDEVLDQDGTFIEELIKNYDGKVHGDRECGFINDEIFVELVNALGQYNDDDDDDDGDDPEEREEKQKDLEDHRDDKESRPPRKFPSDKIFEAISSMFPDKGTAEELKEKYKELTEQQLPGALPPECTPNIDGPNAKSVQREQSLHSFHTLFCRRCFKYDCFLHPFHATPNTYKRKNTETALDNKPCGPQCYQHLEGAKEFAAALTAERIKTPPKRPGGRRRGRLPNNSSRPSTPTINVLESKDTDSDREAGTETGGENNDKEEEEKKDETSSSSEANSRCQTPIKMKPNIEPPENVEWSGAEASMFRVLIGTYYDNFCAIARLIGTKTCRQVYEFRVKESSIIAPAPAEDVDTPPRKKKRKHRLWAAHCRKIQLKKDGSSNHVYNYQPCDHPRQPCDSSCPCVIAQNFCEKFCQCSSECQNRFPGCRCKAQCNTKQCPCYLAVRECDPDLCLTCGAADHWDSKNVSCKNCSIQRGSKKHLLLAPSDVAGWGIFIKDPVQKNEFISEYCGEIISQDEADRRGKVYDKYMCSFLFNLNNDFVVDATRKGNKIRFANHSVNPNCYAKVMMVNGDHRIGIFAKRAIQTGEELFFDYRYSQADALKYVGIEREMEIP

fold binding with PARPi against without PARPi: ~4.4 times
B1: EED (endogenous) (natural protein)
chain: not shown

Reference: paper PMC5786281 (Oncogene, 2017)
